Measurements from US20110262529A1.

Legend:
[1] = target: HLA-A*0201 (human), P04439
[2] = target: HLA-A*0201 (human), P04439; experiment: T2 cell HLA-A*0201 stabilisation, affinity category by BL50

Binder	BL50 (half-maximal binding level) [1] [µM]	BL50 [2] [µM]
QLSLPVLQV (modifications not checked) [pp1a-15]	75.7	< 100
SLQVCVQTV (modifications not checked) [pp1a-1139]	4.9	< 100
MLSRALKKV (modifications not checked) [pp1a-1288]	65.1	< 100
YLSSVLLAL (modifications not checked) [pp1a-1652]	6.7	< 100
CLDAGINYV (modifications not checked) [pp1a-2187]	3	< 100
AMWLLLLSI (modifications not checked) [pp1a-2207]	323	
LLCVLAALV (modifications not checked) [pp1a-2755]	187	100 to 200
TLGVLVPHV (modifications not checked) [pp1a-103]	3.1	< 100
ALSGVFCGV (modifications not checked) [pp1a-2990]	6.2	< 100
VLAWLYAAV (modifications not checked) [pp1a-3444]	53	
FLNRFTTTL (modifications not checked) [pp1a-3459]	39.6	
MLLTFLTSL (modifications not checked) [pp1a-3560]	47.1	< 100
FLLPSLATV (modifications not checked) [pp1a-3616]	31.8	
TLNEDLLEI (modifications not checked) [pp1a-445]	19.2	
LLFITGNTL (modifications not checked) [pp1a-3745]	154	100 to 200
KLNIKLLGI (modifications not checked) [pp1a-3816]	68.1	< 100
VLLSVLQQL (modifications not checked) [pp1a-3848]	102	100 to 200
VLGSLAATV (modifications not checked) [pp1a-4219]	53.3	< 100
KLSAGVEFL (modifications not checked) [pp1a-634]	59.8	< 100
FLITGVFDI (modifications not checked) [pp1a-651]	8.4	
